In patent US6416758:

Molecular target: VEGF:sFlk-1 complex (VEGF associated with its receptor) (human; mouse) (UniProt P15692)
Test: capture ELISA: antibody coated on wells, VEGF complexed with biotinylated sFlk-1 titrated, peroxidase-avidin; concentration giving 50% maximal binding; extrapolated value (*)

Sequence of A4.6.1 (mouse anti-human VEGF monoclonal antibody, Genentech) (VH): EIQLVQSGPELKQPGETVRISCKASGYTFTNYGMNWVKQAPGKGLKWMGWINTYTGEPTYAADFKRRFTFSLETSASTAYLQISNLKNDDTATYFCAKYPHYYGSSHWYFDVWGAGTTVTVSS
Sequence of A4.6.1 (mouse anti-human VEGF monoclonal antibody, Genentech) (VL): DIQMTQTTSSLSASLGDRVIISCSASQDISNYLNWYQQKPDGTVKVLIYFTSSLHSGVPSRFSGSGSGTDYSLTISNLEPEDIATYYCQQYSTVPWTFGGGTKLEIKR
Sequence of VEGF:sFlk-1 complex (VEGF associated with its receptor) (human; mouse) (P15692 other isoform, or with tags, fused parts or gaps limits assumed, chain 1 of 2): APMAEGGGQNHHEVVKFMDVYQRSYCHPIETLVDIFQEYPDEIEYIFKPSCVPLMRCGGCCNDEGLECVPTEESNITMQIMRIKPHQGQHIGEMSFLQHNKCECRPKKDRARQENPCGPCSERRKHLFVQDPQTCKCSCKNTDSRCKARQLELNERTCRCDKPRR
Sequence of VEGF:sFlk-1 complex (VEGF associated with its receptor) (human; mouse) (P35918 20-762 limits assumed, chain 2 of 2, further chain): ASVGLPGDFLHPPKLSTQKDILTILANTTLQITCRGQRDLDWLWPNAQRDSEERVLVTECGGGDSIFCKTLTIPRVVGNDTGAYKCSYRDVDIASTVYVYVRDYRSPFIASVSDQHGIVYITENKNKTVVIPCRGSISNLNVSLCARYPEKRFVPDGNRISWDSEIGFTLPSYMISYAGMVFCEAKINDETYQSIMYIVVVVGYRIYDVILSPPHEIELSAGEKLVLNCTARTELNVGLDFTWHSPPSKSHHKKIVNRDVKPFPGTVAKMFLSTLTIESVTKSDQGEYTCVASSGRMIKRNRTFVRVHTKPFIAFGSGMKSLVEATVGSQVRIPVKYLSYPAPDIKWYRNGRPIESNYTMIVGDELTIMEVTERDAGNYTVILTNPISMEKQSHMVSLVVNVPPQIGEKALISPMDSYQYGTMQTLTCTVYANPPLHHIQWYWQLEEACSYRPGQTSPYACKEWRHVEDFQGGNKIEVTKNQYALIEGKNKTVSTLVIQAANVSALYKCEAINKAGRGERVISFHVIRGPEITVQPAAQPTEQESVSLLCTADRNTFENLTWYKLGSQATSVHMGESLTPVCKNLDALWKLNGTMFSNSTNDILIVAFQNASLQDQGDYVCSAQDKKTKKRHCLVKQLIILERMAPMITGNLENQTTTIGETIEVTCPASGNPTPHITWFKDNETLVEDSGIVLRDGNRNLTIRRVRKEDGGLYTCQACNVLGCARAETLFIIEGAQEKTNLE

EC50: 0.5 µM
Substance: A4.6.1 (mouse anti-human VEGF monoclonal antibody, Genentech)
